Measured values taken from publication PMC3328465.

Key:
[1] = tested on: CT-SBP2L (human); test: EMSA; details: EMSA: 20 fmol RNA in 20 uL, 1x PBS, glycerol, 250 ug yeast tRNA, 10 mM DTT, 5 ug soybean trypsin inhibitor, 37 C 30 min, 4% native PAGE; pH not stated
[2] = tested on: CT-SBP2 (human); test: EMSA; details: EMSA: 20 fmol RNA in 20 uL, 1x PBS, glycerol, 250 ug yeast tRNA, 10 mM DTT, 5 ug soybean trypsin inhibitor, 37 C 30 min, 4% native PAGE; pH not stated

| Substance | Kd [1] | Kd [2] |
| --- | --- | --- |
| GPX4 SECIS | 58.2 nM | 13.2 nM |
| TR1 SECIS | 20.6 nM | 5.8 nM |
| GPX6 SECIS | 313 nM | 150 nM |
| TR3 SECIS | 115 nM | 4.2 nM |
| TR2 SECIS | 54.4 nM | 11.6 nM |
| SelK SECIS | 32.9 nM | 3.6 nM |
| SPS2 SECIS | 129 nM | 7.5 nM |
| SEP15 SECIS | 52.9 nM | 5 nM |
| SelT SECIS | 102 nM | 4 nM |
| DIO1 SECIS | 19.9 nM | 2.7 nM |
| SelI SECIS | 59.2 nM | 12.2 nM |
| SelH SECIS | 102 nM | 4.7 nM |
| GPX2 SECIS | 135 nM | 10.9 nM |
| DIO2 SECIS | 71.3 nM | 6.8 nM |
| GPX1 SECIS | 112 nM | 6.3 nM |
| SelM SECIS | 23.4 nM | 3 nM |
| SelV SECIS | 12.4 nM | 6.7 nM |
| SelN SECIS | 89 nM | 10.5 nM |
| DIO3 SECIS | 55.7 nM | 5.4 nM |
| SelW SECIS | 87.7 nM | 4 nM |
| GPX3 SECIS | 135 nM | 25 nM |
| SelP SECIS 2 | 27.6 nM | 1.6 nM |
| SelO SECIS | 58.7 nM | 7 nM |
| SelR SECIS | 196 nM | 9.7 nM |
| SelP SECIS 1 | 59.2 nM | 3.4 nM |
| SelS SECIS | 93 nM | 25.9 nM |
